The values below come from patent US20250084158A1 (ABL BIO, published 2025).

Test [1] has as its target T1, human CLL-1 on cells (human, UniProt Q5QGZ9 1-265).
T1 sequence (looked up): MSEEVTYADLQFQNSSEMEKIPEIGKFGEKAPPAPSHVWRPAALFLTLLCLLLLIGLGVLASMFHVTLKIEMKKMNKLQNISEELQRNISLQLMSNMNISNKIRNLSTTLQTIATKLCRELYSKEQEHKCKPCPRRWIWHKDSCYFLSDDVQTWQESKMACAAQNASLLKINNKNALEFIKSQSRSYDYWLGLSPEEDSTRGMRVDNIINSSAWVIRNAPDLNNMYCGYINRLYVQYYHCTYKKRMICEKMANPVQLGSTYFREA
Description: cell-based or functional assay.

Test [2] deals with T1, human CLL-1 on cells. Description: hybridoma screening, ELISA and FACS. (An ELISA detects its analyte on a solid surface through an enzyme-linked reagent.)
Test [3] addresses T1, human CLL-1 on cells. Briefly: FACS, OCI-AML2 cells (2nd Ab only 3.28). The procedure: (§1) To evaluate cell binding property, the chimeric antibody candidates of Example 1.2. were analyzed in CLL1 negative cells (HEK293E and Jurkat) and various CLL1 expressing cancer cells by using FACS.
(§2) Briefly, cells were incubated with antibodies at 4° C. for 1 hr. Firstly, the cells were washed with an assay buffer (1% BSA in PBS). Then, an anti-human IgG Fc conjugated with FITC (Fluorescein isothiocyanate) (Sigma, F9512) was added to each well and incubated at 4° C. for 1 hr. After wash, the MFI (Median Fluorescence Intensity) of FITC was measured by BD FACS Cal ibur (BD Biosciences).
(A flow cytometer gives signals particle by particle.)

Test [4] has as its target T1, human CLL-1 on cells. Briefly: FACS, PL21 cells (2nd Ab only 2.82). The procedure: as §1, §2
Test [5] has as its target T1, human CLL-1 on cells. Description: FACS, huCLL1_293E cells (2nd Ab only 5.05). On the procedure:
as §1, §2

The target in test [6] is T1, human CLL-1 on cells. Briefly: FACS, EOL-1 cells (2nd Ab only 2.53). On the procedure: as §1, §2
Test [7] concerns the target T1, human CLL-1 on cells. Description: FACS, U937 cells (2nd Ab only 4.77). On the procedure: as §1, §2
Test [8] concerns the target T1, human CLL-1 on cells. Description: FACS, HL60 cells (2nd Ab only 5.09). The procedure: as §1, §2

B1: hu33C2 (VH3/VL6 (M12)) (antibody, V domains shown)
VH: QVQLVQSGAEVKKPGASVKVSCKASGYSFTGYAMNWVRQAPGQRLEWIGLINPYNGGAMYNQKFKGRATLTVDTSASTAYMELSSLRSEDTAVYYCARDYRYEGHLDYWGQGTLVTVSS
VL: EIVLTQSPATLSLSPGERATLSCSATSSVSYMHWYQQKPGQAPRRWIYDTSKLASGIPARFSGSGSGTSYTLTISSLEPEDFAVYYCQQWSSDSPTFGQGTKLEIK
Regarding B1, in the test with human CLL-1 on cells [1], the “ADCC reporter bioassay (luminescence), EC50” value (shortened to “ADCC reporter bioassay”) amounted to 0.141 nM.

B2: 33C2 (mouse hybridoma clone) (antibody, V domains shown)
VH: EVQLQQSGPELVKPGASMKISCKASGYSFTGYAMNWVKQSHGKNLEWIGLINPYNGGAMYNQKFKGKATLTVDKSTSTAYMELLSLTSEDSAVYYCARDYRYDGHLDYWGQGTTLTVSS
VL: QIVLTQSPVIMSASPGEKVTMTCSATSSVSYMHWYQQKSGTSPKRWIYDTSKLASGVPVRFSGSGSGTSYSLTISRMEAEDAATYYCQQWSSDSPTFGVGTKLELK
notes: Mouse monoclonal antibody from a Balb/c hybridoma; also called murine 33C2
As to B2, the binding result with human CLL-1 on cells [2] is reported as “binds”.

B3: 16C6 (mouse hybridoma clone) (antibody, V domains shown)
VH: EVQLQQSGPELVKPGASVKISCKASGYSFTGYYMHWVKQSHVKSLEWIGHVNPYNGATSFNRNFKDKASLTVDKSSSTAYMELHSLTSEDSAVYYCGRSADGYYERHFDYWGQGTTLTVSS
VL: DIVLTQSPASLAVSLGQRATISCKASQSVDYDGDSYMNWYQQKPGQPPKLLIYAASNLQSGIPARFSGSGSGTDFTLNIHPVEEEDAATYYCQQSDKDPLTFGAGTKLELK
notes: Mouse monoclonal antibody from a Balb/c hybridoma; also called murine 16C6
Take B3: in the test with human CLL-1 on cells [2], the binding result was “binds”.

B4: hu16C6 (VH1/VL1(M14)) (antibody, V domains shown)
VH: QVQLVQSGAEVKKPGASVKISCKASGYSFTGYYMHWVKQSHGQGLEWIGHVNPYNGATSFNRNFKDRASLTVDTSTSTVYMELSSLRSEDSAVYYCGRSAYGYYERHFDYWGQGTLVTVSS
VL: DIVMTQSPDSLAVSLGERATINCKASQSVDYDADSYMNWYQQKPGQPPKLLIYAASNLQSGVPDRFSGSGSGTDFTLTISSLQAEDVAVYYCQQSDRDPLTFGGGTKLEIK
As for B4, in the test with human CLL-1 on cells [1], the “ADCC reporter bioassay” value came out at 0.13 nM.

B5: ch84A2 (N12S) (antibody, V domains shown)
VH: EVQLQQSGPELVKSGASVKMSCKASGYTFTSYVIHWVKQMPGQGLEWIGLFNPYNDDVNYNEKFKGKATLTSDKYSSTAYLDLSSLTSEDSAVYYCAREGVHYGRPWFGYWGQGTLVTVSA
VL: DIKMTQSPSSMSASLGERVTITCKASQDIKSYLNWFQQKPGKSPKTLIYRASRLVDGVPARFSGSESGQDYSLTISSLEFEDMGIYYCLQYDEFPLTFGAGTKLELK
On to B5, for which, in the test with human CLL-1 on cells [1], the “ADCC reporter bioassay” value was 0.416 nM.

B6: ch84A2(NA/N12S) (antibody, human IgG1, kappa, N297A, V domains shown)
VH: B5 VH
VL: DIKMTQSPSSMSASLGERVTITCKASQDIKSYLNWFQQKPGKSPKTLIYRASRLVDGVPARFSGSESGQDYSLTISSLEFEDMGIYYCLQYDEFPLTFGAGTKLELKR
notes: Chimeric, human IgG1 N297A and human kappa; also called ch84C2; chimeric antibody of 84A2
As to B6, the “MFI(FL1-H)” value with human CLL-1 on cells [3] amounted to 13; with human CLL-1 on cells [4] it was 27.6; in the test with human CLL-1 on cells [5], 72.5; with human CLL-1 on cells [6], 3.36; in the test with human CLL-1 on cells [7], 30.5; with human CLL-1 on cells [8] it was 14.5.
